Data: publication PMC4854876

Biological target: human hemoglobin (human) (UniProt P69905)
Assay: SPR

UniProt P69905, sequence (P69905 whole entry, chain 1 of 2): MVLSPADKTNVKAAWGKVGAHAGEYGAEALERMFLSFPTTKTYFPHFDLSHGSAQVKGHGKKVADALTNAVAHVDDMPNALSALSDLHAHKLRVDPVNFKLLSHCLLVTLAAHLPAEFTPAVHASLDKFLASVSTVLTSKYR
UniProt P69905, sequence (P68871 whole entry, chain 2 of 2, further chain): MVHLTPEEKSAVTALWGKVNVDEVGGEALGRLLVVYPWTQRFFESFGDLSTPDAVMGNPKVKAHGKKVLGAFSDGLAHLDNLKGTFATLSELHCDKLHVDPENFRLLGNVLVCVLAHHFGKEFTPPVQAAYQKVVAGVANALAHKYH

## Spbhp-37 recombinant protein without the GST tag (natural protein)
  Kd: 357 nM
